This is an account of results in patent US20190353654A1 (published 2019).

One experiment deals with human insulin (human, UniProt P01308 25-54; P01308 90-110). As to the kind of experiment: MicroScale Thermophoresis, 5 nM labeled receptor, insulin titrated. On the technique in general: MST reads how a fluorescent partner responds to local heating, with and without ligand.
For experiment [1], the target named is T1, CCL27 (UniProt Q9Y4X3 25-112, limits assumed).
T1 sequence (looked up): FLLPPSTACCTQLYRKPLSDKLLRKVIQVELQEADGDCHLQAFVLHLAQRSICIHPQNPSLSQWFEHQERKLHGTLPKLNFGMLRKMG
The experiment in a line: MicroScale Thermophoresis, labeled receptor, ligand titrated, in 50% human serum.

The target of experiment [2] is T2, CCL28 (UniProt Q9NRJ3 20-127).
T2 construct: range 20-127; also called CCL2820-127
T2 sequence (looked up): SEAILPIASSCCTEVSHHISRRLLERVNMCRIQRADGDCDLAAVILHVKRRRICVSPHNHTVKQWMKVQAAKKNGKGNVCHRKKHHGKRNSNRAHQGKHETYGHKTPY
The description is as above.

Experiment [3] deals with T1, CCL27. The experiment in a line: MicroScale Thermophoresis, labeled receptor, ligand titrated, in buffer (1x PBS, 5 mM DTT).
Experiment [4] concerns the target T2, CCL28. The description is as above.
Experiment [5] has as its target T3, CXCL11 (UniProt O14625 22-94).
T3 sequence (looked up): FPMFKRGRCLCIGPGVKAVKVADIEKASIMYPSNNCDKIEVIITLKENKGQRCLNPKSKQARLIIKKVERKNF
The experiment in a line: MicroScale Thermophoresis, labeled receptor, ligand titrated, in 50% human serum.

The target of experiment [6] is T3, CXCL11. The experiment in a line: MicroScale Thermophoresis, labeled receptor, ligand titrated, in buffer (1x PBS, 5 mM DTT).
Experiment [7] deals with T4, HIV-1 coat protein gp41-120 (HIV-1).
T4 construct: also called HIV coat proteins gp41-120; HIV surface protein gp41-120
Described as above.

Experiment [8] deals with T4, HIV-1 coat protein gp41-120. The experiment in a line: MicroScale Thermophoresis, labeled receptor, ligand titrated, in 50% human serum.
Experiment [9] has the same target. The experiment is described as above. This is another data set of the same source.

B1: CCR10^QTY (receptor, not shown: small tags and cut ends)
chain: MGTEATEQVSWGHYSGDEEDAYSAEPLPELCYKADVQAFSRAFQPSVSLTVAAQGQAGNGQTQATHQAARRAARSPTSAHQQQQAQADQQQAQTQPYAAAGALQGWSLGSATCRTTSGQYSASYHAGYQYQACTSADRYVAIARALPAGPRPSTPGRAHQTSTTTWQQSQQQAQPAQQYSQDGQREGQRRCRLIFPEGLTQTVKGASATAQTAQGYAQPQGTMTACYALLGRTLLAARGPERRRALRTTTAQTAAYTTQQQPYSQAQQQDTADLLAARERSCPASKRKDVAQQTTSGQAQARCGQNPTQYAYQGLRFRQDLRRLLRGGSCPSGPQPRRGCPRRPRLSSCSAPTETHSLSWDN
modifications: Receptor labelled with NT647 dye (RED-NHS, on amines) for MST; sites not specified
notes: Expressed in SF9 insect cells and purified without detergent
As to B1, in the experiment with human insulin, the binding result is “no binding (tested: 0.153 nM-5,000 nM insulin)”. Moreover, the dissociation constant (Kd) (in general, the concentration at which binding is half-saturated) in the experiment with CCL27 [1] was determined as 5.6 nM; with CCL28 [2], 21 nM; with CCL27 [3] it was 3.1 nM; with CCL28 [4] it was 9.3 nM.

B2: CXCR7^QTY (receptor)
chain: MDLHLFDYSEPGNFSDISWPCNSSDCIVVDTVMCPNMPNKSTQQYTQSYTYTYTYTTGMTANSVVVWVNIQAKTTGYDTHCYTQNQATADQWTTQTTPTWTTSLVQHNQWPMGELTCKTTHQTYSTNQYGSTYYQTCMSVDRYLSITYFTNTPSSRKKMVRRTTCTQTWQQAYCTSQPDTYYQKTVTSASNNETYCRSFYPEHSIKEWLIGMEQTSTTQGYATPYSTTATYYYQLARAISASSDQEKHSSRKTTYSYTTTYQTCWQPYHTATQLDIFSILHYIPFTCRLEHALFTAQHTTQCQSQTHCCTNPTQYSYTNRNYRYELMKAFIFKYSAKTGLTKLIDASRVSETEYSALEQSTK
modifications: The receptor was labelled with NT647 (RED-NHS dye on lysines, positions not defined) for MST. The letters do not carry this.
notes: Expressed in SF9 insect cells and purified without detergent; not shown: C-terminal His tag
Take B2: in the experiment with human insulin, the binding result is reported as “no binding (tested: 0.153 nM-5,000 nM insulin)”. For the same molecule, the Kd was 28 nM in the experiment with CXCL11 [5], 16 nM in the experiment with CXCL11 [6], 1.2 nM in experiment [7] and 7 nM in [8].

B3: CCR5^QTY (receptor, not shown: small tags and cut ends)
chain: MDYQVSSPIYDINYYTSEPCQKINVKQIAARQQPPQYSQTFTYGFTGNMQTTQTQINCKRLKSMTDIYLQNQAISDQYYQQTTPYWAHYAAAQWDFGNTMCQQQTGQYFTGYYSGTYYTTQQTTDRYLAVVHAVFALKARTTTYGTTTSTTTWTTATYASQPGTTYTRSQKEGLHYTCSSHFPYSQYQFWKNFQTLKITIQGQVQPQQTMVTCYSGTQKTLLRCRNEKKRHRAVRQTFTTMTTYYQYWAPYNTTQQLNTFQEFFGLNNCSSSNRLDQAMQVTETQGMTHCCTNPTIYAYVGEKFRNYLLVFFQKHIAKRFCKCCSIFQQEAPERASSVYTRSTGEQEISVGL
modifications: Receptor labelled with NT647 dye (RED-NHS, on amines) for MST; sites not specified
notes: Expressed in SF9 insect cells and purified without detergent; also called detergent-free CCR5 variant
For B3, the binding result in the experiment with human insulin was “no binding (tested: 0.153 nM-5,000 nM insulin)”. Further, the dissociation constant (Kd) in experiment [9] stood at 4.3 nM; in experiment [7] it was 3.1 nM.

B4: CXCR4^QTY (receptor, not shown: small tags and cut ends)
chain: MEGISIYTSDNYTEEMGSGDYDSMKEPCFREENANFNKTYQPTTYSTTYQTGTTGQGQTTQTMGYQKKQRSMTDKYRQHQSTADQQYTTTQPYWATDATANWYFGNFQCKATHTTYTTQQYSSTQTQAYTSQDRYLAIVHATNSQRPRKQQAEKTTYTGTWTPAQQQTTPDYTYANVSEADDRYICDRFYPNDLWTTTYQYQHTMTGQTQPGTTTQSCYCTTTSKLSHSKGHQKRKALKTTTTQTQAYYACWQPYYTGTSTDSFILLEIIKQGCEFENTVHKWTSTTEAQAYYHCCQQPTQYAYQGAKYKTSAQHAQTSTSRGSSQKTQSKGKRGGHSSTSTESESSSFHSS
modifications: Receptor labelled with NT647 dye (RED-NHS, on amines) for MST; sites not specified
B4: in the experiment with human insulin, the binding result is on record as “no binding (tested: 0.153 nM-5,000 nM insulin)”. Also, the equilibrium dissociation constant (Kd) in experiment [7] came out at 117 nM; in experiment [8] it was 185 nM.
